Measurements from patent CN110903395A (SICHUAN KELUN BOTAI BIOMEDICAL CO LTD, dated 2020).

T1: Trop-2-mFc (human, UniProt P09758 27-274)
T1 construct: Made in-house by 四川科伦博泰; Coated at 1 μg/ml on the ELISA plate; also called 配体Trop-2-mFc
T1 sequence (looked up): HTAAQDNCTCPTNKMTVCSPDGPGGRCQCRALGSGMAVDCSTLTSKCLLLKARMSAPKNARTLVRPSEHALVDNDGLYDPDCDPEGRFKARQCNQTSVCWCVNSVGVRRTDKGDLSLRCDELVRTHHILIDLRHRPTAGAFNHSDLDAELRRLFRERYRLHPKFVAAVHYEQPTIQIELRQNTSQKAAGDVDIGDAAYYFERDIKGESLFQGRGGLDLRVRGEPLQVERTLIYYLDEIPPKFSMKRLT


Biological target: T1, Trop-2-mFc
Assay: ELISA, Trop-2-mFc coated at 1 μg/ml, detection with HRP-anti human IgG(H+L)

Binder	EC50 [nM]
疏水性改造TROP-2抗体M1 (antibody, human IgG1, kappa, V domains shown, Humanized anti-Trop-2 antibody derived from Sacituzumab by hydrophilic CDR mutations; expressed in CHO-S cells, purified on protein A) VH: QVQLQQSGSELKKPGASVKVSCKASGYTFTNYGMNWVKQAPGQGLKWMGWINTDSGEPTYTDDFKGRFAFSLDTSVSTAYLQISSLKADDTAVYFCARGGFGSSYWYFDVWGQGSLVTVSS VL: DIQLTQSPSSLSASVGDRVSITCKASQDVSSAVAWYQQKPGKAPKLLIYSASYRYTGVPDRFSGSGSGTDFTLTISSLQPEDFAVYYCQQHYSTPLTFGAGTKVEIKR	9.91
疏水性改造TROP-2抗体M2 (antibody, human IgG1, kappa, V domains shown, Humanized anti-Trop-2 antibody derived from Sacituzumab by hydrophilic CDR mutations; expressed in CHO-S cells, purified on protein A) VH: QVQLQQSGSELKKPGASVKVSCKASGYTFTNYGMNWVKQAPGQGLKWMGWINTDSGEPTYTDDFKGRFAFSLDTSVSTAYLQISSLKADDTAVYFCARGGFGSSYWYFDVWGQGSLVTVSS VL: DIQLTQSPSSLSASVGDRVSITCKASQDVSSAVAWYQQKPGKAPKLLIYSASYRYTGVPDRFSGSGSGTDFTLTISSLQPEDFAVYYCQQHYITPLTFGAGTKVEIKR	13.9
疏水性改造TROP-2抗体M3 (antibody, human IgG1, kappa, V domains shown, Humanized anti-Trop-2 antibody derived from Sacituzumab by hydrophilic CDR mutations; expressed in CHO-S cells, purified on protein A) VH: QVQLQQSGSELKKPGASVKVSCKASGYTFTNYGMNWVKQAPGQGLKWMGWINTDSGEPTYTDDFKGRFAFSLDTSVSTAYLQISSLKADDTAVYFCARGGFGSSYWYFDVWGQGSLVTVSS VL: DIQLTQSPSSLSASVGDRVSITCKASQDVSIAVAWYQQKPGKAPKLLIYSASYRYTGVPDRFSGSGSGTDFTLTISSLQPEDFAVYYCQQHYSTPLTFGAGTKVEIKR	10.8
Sacituzumab抗体 (antibody, V domains shown) VH: QVQLQQSGSELKKPGASVKVSCKASGYTFTNYGMNWVKQAPGQGLKWMGWINTYTGEPTYTDDFKGRFAFSLDTSVSTAYLQISSLKADDTAVYFCARGGFGSSYWYFDVWGQGSLVTVSS VL: DIQLTQSPSSLSASVGDRVSITCKASQDVSIAVAWYQQKPGKAPKLLIYSASYRYTGVPDRFSGSGSGTDFTLTISSLQPEDFAVYYCQQHYITPLTFGAGTKVEIKR	13.1
